Assay results published in publication PMC3284002 (The Journal of Cell Biology, 2012).

T1: KNL-1^1–505–6xHis, wild type (C. elegans, UniProt P34278 1-505)
T1 sequence: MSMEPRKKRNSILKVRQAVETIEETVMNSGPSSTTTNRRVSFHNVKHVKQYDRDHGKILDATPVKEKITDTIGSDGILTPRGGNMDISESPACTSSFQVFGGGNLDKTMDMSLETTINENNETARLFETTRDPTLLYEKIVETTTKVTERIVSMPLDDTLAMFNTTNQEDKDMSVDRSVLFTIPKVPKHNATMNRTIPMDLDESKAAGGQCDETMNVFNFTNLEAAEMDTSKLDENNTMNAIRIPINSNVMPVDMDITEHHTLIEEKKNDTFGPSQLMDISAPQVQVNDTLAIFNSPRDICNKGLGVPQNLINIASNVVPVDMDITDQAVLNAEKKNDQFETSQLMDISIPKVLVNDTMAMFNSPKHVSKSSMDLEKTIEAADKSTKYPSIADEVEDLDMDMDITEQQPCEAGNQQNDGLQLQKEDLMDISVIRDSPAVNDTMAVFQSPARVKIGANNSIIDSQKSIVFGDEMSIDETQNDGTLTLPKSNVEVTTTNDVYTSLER

B1: KNL-1^1–505–6xHis Δ9 (domain or fragment)
chain: NSILKVRQAVETIEETVMNSGPSSTTTNRRVSFHNVKHVKQYDRDHGKILDATPVKEKITDTIGSDGILTPRGGNMDISESPACTSSFQVFGGGNLDKTMDMSLETTINENNETARLFETTRDPTLLYEKIVETTTKVTERIVSMPLDDTLAMFNTTNQEDKDMSVDRSVLFTIPKVPKHNATMNRTIPMDLDESKAAGGQCDETMNVFNFTNLEAAEMDTSKLDENNTMNAIRIPINSNVMPVDMDITEHHTLIEEKKNDTFGPSQLMDISAPQVQVNDTLAIFNSPRDICNKGLGVPQNLINIASNVVPVDMDITDQAVLNAEKKNDQFETSQLMDISIPKVLVNDTMAMFNSPKHVSKSSMDLEKTIEAADKSTKYPSIADEVEDLDMDMDITEQQPCEAGNQQNDGLQLQKEDLMDISVIRDSPAVNDTMAVFQSPARVKIGANNSIIDSQKSIVFGDEMSIDETQNDGTLTLPKSNVEVTTTNDVYTSLER

Legend:
[1] = biological target: T1, KNL-1^1–505–6xHis, wild type; experiment: pull-down
KNL-1^1–505–6xHis Δ9 = biological target: B1; experiment: pull-down
SEC = biological target: the molecule itself; experiment: SEC

| Binder | binding result [1] | binding result (KNL-1^1–505–6xHis Δ9) | binding result (SEC) |
| --- | --- | --- | --- |
| GST–GSP-2 (enzyme) MDVEKLNLDNIISRLLEVRGSKPGKNVQLTESEIKGLCQKSREIFLSQPILLELEAPLKICGDVHGQYYDLLRLFEYGGFPPESNYLFLGDYVDRGKQSLETICLLLAYKIKYPENFFLLRGNHECASINRIYGFYDECKRRYNIKLWKTFTDCFNCLPVAAIIDEKIFCCHGGLSPDLQSMEQIRRIMRPTDVPDQGLLCDLLWSDPDKDVTGWGENDRGVSFTFGPEVVAKFLHKHDLDLICRAHQVVEDGYEFFAKRQLVTLFSAPNYCGEFDNAGSMMTVDETLMCSFQILKPADKKKYPYGAGGVGSNRPVTPPRNAPAAQPKKGAKK | binds | binds | – |
| B1 | – | – | binds |
